Assay results reported in patent publication US20200069794A1.

What was measured:
[1] = target: human metapneumovirus (hMPV) fusion (F) protein (Strain: A/TN92-4) (human metapneumovirus) (UniProt Q6WB98); test: flow cytometry, fluorescent staining of Hela cells transfected with hMPV/hPIV3 mRNA constructs; secondary antibody only (control)
[2] = target: human metapneumovirus (hMPV) fusion (F) protein (Strain: A/TN92-4) (human metapneumovirus) (UniProt Q6WB98); test: flow cytometry, fluorescent staining of Hela cells transfected with hMPV/hPIV3 mRNA constructs; MPE8 at 500 nM plus secondary antibody

Row | Substance | Mean FL4-H [1] | Mean FL4-H [2]
1 | secondary antibody (staining control, 'Secondary only') | 2160 | 
2 | hMPV-F-specific antibodies MPE-8 (antibody) |  | 617000
